Legend:
[1] = molecular target: non-targeted IgG-IL2 (interleukin-2 fused to the C-terminus of a heavy chain of a germline antibody, which is not binding to a target); test: bridging ELISA, IgG-IL2-Bi and -Dig, binder 0.00 ng/mL (blank)
[2] = molecular target: non-targeted IgG-IL2 (interleukin-2 fused to the C-terminus of a heavy chain of a germline antibody, which is not binding to a target); test: bridging ELISA, IgG-IL2-Bi and -Dig, binder 1.0 ng/mL assay / 20 ng/mL matrix
[3] = molecular target: non-targeted IgG-IL2 (interleukin-2 fused to the C-terminus of a heavy chain of a germline antibody, which is not binding to a target); test: bridging ELISA, IgG-IL2-Bi and -Dig, binder 16 ng/mL assay / 313 ng/mL matrix
[4] = molecular target: non-targeted IgG-IL2 (interleukin-2 fused to the C-terminus of a heavy chain of a germline antibody, which is not binding to a target); test: bridging ELISA, IgG-IL2-Bi and -Dig, binder 0.1 ng/mL assay / 2.4 ng/mL matrix
[5] = molecular target: non-targeted IgG-IL2 (interleukin-2 fused to the C-terminus of a heavy chain of a germline antibody, which is not binding to a target); test: bridging ELISA, IgG-IL2-Bi and -Dig, binder 7.8 ng/mL assay / 156 ng/mL matrix
[6] = molecular target: non-targeted IgG-IL2 (interleukin-2 fused to the C-terminus of a heavy chain of a germline antibody, which is not binding to a target); test: bridging ELISA, IgG-IL2-Bi and -Dig, binder 0.06 ng/mL assay / 1.2 ng/mL matrix
[7] = molecular target: non-targeted IgG-IL2 (interleukin-2 fused to the C-terminus of a heavy chain of a germline antibody, which is not binding to a target); test: bridging ELISA, IgG-IL2-Bi and -Dig, binder 250 ng/mL assay / 5000 ng/mL matrix
[8] = molecular target: drug antibody (capture and tracer of the bridging immunoassay of FIGS. 2, 7 and 8; not named); test: bridging immunoassay, drug antibody as capture and tracer, binder at 1000 ng/ml
[9] = molecular target: TCB (T-cell bispecific format) drug antibody; test: bridging ELISA, drug-Bi and drug-Dig, human pooled serum, binder 3.9 ng/mL assay / 78 ng/mL matrix
[10] = molecular target: non-targeted IgG-IL2 (interleukin-2 fused to the C-terminus of a heavy chain of a germline antibody, which is not binding to a target); test: as above
[11] = molecular target: targeted IgG-IL2 (interleukin-2 fused to the C-terminus of a heavy chain of an antibody specifically binding to a therapeutic target); test: as above
[12] = molecular target: TCB (T-cell bispecific format) drug antibody; test: bridging ELISA, drug-Bi and drug-Dig, human pooled serum, binder 0.49 ng/mL assay / 10 ng/mL matrix
[13] = molecular target: non-targeted IgG-IL2 (interleukin-2 fused to the C-terminus of a heavy chain of a germline antibody, which is not binding to a target); test: as above
[14] = molecular target: targeted IgG-IL2 (interleukin-2 fused to the C-terminus of a heavy chain of an antibody specifically binding to a therapeutic target); test: as above
[15] = molecular target: TCB (T-cell bispecific format) drug antibody; test: bridging ELISA, drug-Bi and drug-Dig, human pooled serum, binder 0.03 ng/mL assay / 0.6 ng/mL matrix
[16] = molecular target: non-targeted IgG-IL2 (interleukin-2 fused to the C-terminus of a heavy chain of a germline antibody, which is not binding to a target); test: as above
[17] = molecular target: targeted IgG-IL2 (interleukin-2 fused to the C-terminus of a heavy chain of an antibody specifically binding to a therapeutic target); test: as above
[18] = molecular target: TCB (T-cell bispecific format) drug antibody; test: bridging ELISA, drug-Bi and drug-Dig, human pooled serum, binder 0.06 ng/mL assay / 1.2 ng/mL matrix
[19] = molecular target: non-targeted IgG-IL2 (interleukin-2 fused to the C-terminus of a heavy chain of a germline antibody, which is not binding to a target); test: as above
[20] = molecular target: targeted IgG-IL2 (interleukin-2 fused to the C-terminus of a heavy chain of an antibody specifically binding to a therapeutic target); test: as above
[21] = molecular target: TCB (T-cell bispecific format) drug antibody; test: bridging ELISA, drug-Bi and drug-Dig, human pooled serum, binder 0.24 ng/mL assay / 4.9 ng/mL matrix
[22] = molecular target: non-targeted IgG-IL2 (interleukin-2 fused to the C-terminus of a heavy chain of a germline antibody, which is not binding to a target); test: as above
[23] = molecular target: targeted IgG-IL2 (interleukin-2 fused to the C-terminus of a heavy chain of an antibody specifically binding to a therapeutic target); test: as above
[24] = molecular target: TCB (T-cell bispecific format) drug antibody; test: bridging ELISA, drug-Bi and drug-Dig, human pooled serum, binder 250 ng/mL assay / 5000 ng/mL matrix
[25] = molecular target: non-targeted IgG-IL2 (interleukin-2 fused to the C-terminus of a heavy chain of a germline antibody, which is not binding to a target); test: as above
[26] = molecular target: targeted IgG-IL2 (interleukin-2 fused to the C-terminus of a heavy chain of an antibody specifically binding to a therapeutic target); test: as above

B1: multivalent anti-PG antibody derived from clone 1.7.24 (mixed Pool 2, 3, 4) (antibody, V domains shown)
VH: EVKLLESGGGLVQPGGSLKLSCAASGFDFSRYWMNWVRQAPGKGLEWIGEITPDSSTINYTPSLKDKFIISRDNAKNTLYLQMIKVRSEDTALYYCVRPYDYGAWFASWGQGTLVTVSA
VL: QAVVTQESALTTSPGETVTLTCRSSTGAVTTSNYANWVQEKPDHLFTGLIGGTNKRAPGVPARFSGSLIGDKAALTITGAQTEDEAIYFCALWYSNHWVFGGGTKLTVL
modifications: lysine amines derivatised with SATP or MHS and cross-linked (sites not given)
[1]
  signal [AU]: 0.053 AU
[2]
  signal [AU]: 0.114 AU
[3]
  signal [AU]: 0.996 AU
[4]
  signal [AU]: 0.058 AU
[5]
  signal [AU]: 0.539 AU
[6]
  signal [AU]: 0.056 AU
[7]
  signal [AU]: 3.04 AU
[8]
  signal-to-noise ratio (S/N): 83.6
[9]
  signal [AU]: 0.35 AU
[10]
  signal [AU]: 0.088 AU
[11]
  signal [AU]: 0.261 AU
[12]
  signal [AU]: 0.0835 AU
[13]
  signal [AU]: 0.045 AU
[14]
  signal [AU]: 0.0675 AU
[15]
  signal [AU]: 0.0455 AU
[16]
  signal [AU]: 0.0425 AU
[17]
  signal [AU]: 0.04 AU
[18]
  signal [AU]: 0.049 AU
[19]
  signal [AU]: 0.042 AU
[20]
  signal [AU]: 0.042 AU
[21]
  signal [AU]: 0.0645 AU
[22]
  signal [AU]: 0.045 AU
[23]
  signal [AU]: 0.055 AU
[24]
  signal [AU]: 2.99 AU
[25]
  signal [AU]: 2.17 AU
[26]
  signal [AU]: 2.99 AU
